How the values were obtained:
GAL4 reporter = assay: GAL4 DBD-TIF2 fusion CAT reporter transactivation assay; assay type: cell-based; conditions: Cos-1 and/or HeLa cells
In short: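 Transiently transfected HeLa and Cos-1 cells received plasmids (3 μg; 1-10 μg in titration) expressing TIF2 regions or mutants fused to GAL4 DBD(1-147), plus 1 μg (17m)5-G-CAT reporter. CAT activity measured by TLC phosphoimaging or CAT ELISA, normalized to cotransfected β-galactosidase, expressed as fold over GAL4 DBD alone; mean of ≥3 experiments.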

[1] = system: CBP (residues 1872 to 2165); assay: GST-CBP pull-down of TIF2 polypeptides; assay type: binding
Description: (d) Mapping of the CBP-interacting domain of TIF2. GST puld own experiments were performed with ^35S-labeled in-vitro-translated TIF2 polypeptides and bacterially produced GST and GST-CBP (expressing CBP residues 1872 to 2165).
(c) Interaction of TIF2 AF-1 mutants with CBP in vitro. GST pull-down experiments were performed with ^35S-labeled in-vitro-translated GAL-TIF2 fusion proteins and bacterially produced GST and GST-CBP.
(c) Interaction of TIF2.13 wildtype and TIF2.13 mutants with CBP in vitro. GST pull-down experiments were performed with ^35S-labeled in-vitro-translated VP16-TIF2.13 polypeptides and bacterially produced GST and GST-CBP.
(§1) Furthermore, it was reported that SRC-1, which belongs to the same gene family as TIF2, interacts with CBP and p300 (Kamei, Y. et al., Cell 85:403-414 (1996); Yao, T. P. et al., Proc. Natl. Acad. Sci. USA 93:10626-10631 (1996); Hanstein, B., et al., Proc. Natl. Acad Sci USA 93:11540-11545 (1996)). Using GST-fusion protein-based interaction and animal cell-based two hybrid assays, we therefore analyzed whether TIF2 could also interact with CBP. […] A GST-CBP fusion protein was expressed in E. coli and used for puU-down assays with in vitro translated TIF2 polypeptides (FIG. 7d).

GAL-CBP = assay: two hybrid analysis of CBP-TIF2 interaction in HeLa cells; assay type: cell-based
Description: (e) Two hybrid analysis of the CBP-TIF2 interaction in mammalian cells in vivo. HeLa cells were transfected with 0.2 μg of the GAL4 or GALA-CBP (expressing CBP residues 1872 to 2165) expression vectors together with 0.2 μg of the VP16 or VPI6-TF2 expression vectors in the presence of 2 μg of (17m)5-TATA-CAT reporter plasmid. Fold induction relative to the GAL-CBP activity is indicated. The mean of three experiments is shown; in each case, values varied by less than ±20%.
HeLa cells were transfected with 0.2 μg of GAL4 or GAL-CBP expression vectors together with 0.2 μg of VP16 or VP16-TIF2.13 expression vectors in the presence of 1 μg of (17m)5-TATA-CAT reporter plasmid. Data are represented as fold induction of the activity seen with GAL-CBP alone. The mean and standard, deviation obtained from ten experiments are shown. The expression levels were confirmed by Western blotting with antibodies directed against GAL4 DBD and VP16 AAD (data not shown).
as §1

histone = histone acetylase activity of purified TIF2 fragments; assay type: biochemical; conditions: bacterially-expressed purified fragment
From the text: TIF2 can apparently fulfill at least two mediator functions, (i) as a “bridging factor” between the AF-2 function of nuclear receptors and CBP via its AD1 activation domain and (ii) as a transcriptional mediator through as yet unknown CBP binding-independent route(s) via its AD2 function.

ER (HEGO) = assay: yeast PL3 (ERE)3-URA3 reporter, OMP decase activity, ER; assay type: cell-based, human; conditions: with estradiol
From the text: (§2) FIG. 11. The TIF2.1 coactivator fragment efficiently stimulates the ligand-dependent AF-2 of ER, RAR and RXR in yeast. No stimulatory effect of TIF2.1 on the isolated AF-1 of ER (HE15) is observable. Plasmids expressing different regions of hERα (white), hRARα (grey) and mRXRα (black) fused to the ER DBD (hERα(C)) were introduced into the yeast reporter strain PL3 (α) together with TIF2.1 as indicated. […] OMP decase activities determined on each cell-free extract are expressed in nmoyrnin/mg protein; the mean and standard deviation of at least four experiments are shown.
(§3) We therefore investigated whether TIF2 could enhance transcriptional activation by various NR constructs expressed in S. cerevisiae. Both, NRs and TIF2.1 were expressed from multicopy plasmids in the yeast strain PL3 (a), which contains a URA3 reporter gene under the control of three estrogen response elements ((ERE)3-URA3; Pierrat, B. et al., Gene 119:237-245 (1992)).
(§4) In yeast, the hERa constructs were expressed from the following YEp90-based plasmids: HEGO (hERα, YEp90-HEGO, amino acids 1-595), HE15 (YEp90-HE15, amino acids 1-282), and HEG19 (YEp90-HEG19, amino acids 179-595) (all Pierrat, B. et al., Gene 119:237-245 (1992)), HE179-338 (YEp90-HE179-338; Pierrat, B. et al., Gene 143:193-200 (1994)). […]

RXRα AF-2 = assay: yeast PL3 (ERE)3-URA3 reporter, OMP decase activity, RXRα; assay type: cell-based, mouse; conditions: with ligand
From the text: as §2, §3, §4

RARα LBD = assay: yeast PL3 (ERE)3-URA3 reporter, OMP decase activity, RARα; assay type: cell-based, human; conditions: absence of ligand
From the text: as §2, §3, §4

ER, RARα and RXRα LBDs = assay: GST pull-down of TIF2 polypeptides with NR LBDs; assay type: binding; conditions: in vitro, with or without 10^−6 M ligand
Description: (b) Mapping of the nuclear receptor-interacting domain of TIF2.
(c-d) Interaction of TIF2 NID mutants with NRs in vitro. […] For quantification of point mutant interactions, see below.
(e-f) Effect of TIF2 NID point mutations on stimulation of NR AF-2 activity. Cos-1 cells were cotransfected with 1 μg of the (17m)5-TATA-CAT reporter, 0.2 μg of GAL-hERα(EF) or GAL-mRXRα(DE), and 2.5 μg of the TIF2.1 wildtype or mutated fragments, as indicated. […] Each bar represents the mean value obtained from at least three (interaction) or at least four (transactivation) experiments, respectively; standard deviations are indicated. Note that the absolute values for TIF2.1 wildtype activity varied by ±16% when cotransfected with GAL-hERα(EF) and by ±34% when cotransfected with GAL-mRXRα(DE). In the in-vitro-interaction assays, the affinity of the TIF2.1 wildtype standard varied by less than ±25%. Expression levels of TIF2 mutants in the cells were verified by Western blot (not shown) with mouse monoclonal antibody 3Ti3F1, which is directed against an epitope outside the mutated area.
To further delineate the TIF2 NR interaction domain (NID), we studied the interaction between a series of TIF2 deletion mutants and the ER or RARα LBDs, using GST-fusion protein-based in vitro assays. In both cases, an NWD was mapped to the central region of TIF2 (amino acids 624-869 in mutant TIF2.5; see FIGS. 7a and b). No additional NWD could be identified in the N- or C-termini of TIF2 (FIGS. 7a and b; mutants TIF2.0, TIF2.2 and TIF2.7). Note that, in contrast, SRC-1, a paralogue of TIF2, apparently harbours two distinct non-contiguous NIDs located in the central and C-terminal regions (Onate, S. A. et al., Science 270:1354-1357 (1995), Yao, T. P. et al., Proc. Natl. Acad. Sci. USA 93:10626-10631 (1996); Zhu, Y. et al., Gene Epression 6:185-195 (1996)).

[2] = system: AF-2 activity of ER, RXRα and RARα; assay: dominant negative effect on NR AF-2 activity, (17m)5-TATA-CAT reporter; assay type: cell-based; conditions: HeLa and Cos-1 cells
From the text: FIG. 12(a-d). The isolated nuclear receptor-interacting domain (ND) of TIF2 acts dominant-negatively on the transcriptional activation by the ER, RXR and RAR LBDs. The mean value of induction obtained from the quantitation of at least three experiments (relative to the respective receptor LBD activity in absence of recombinant TIF2) is indicated below each panel. Expression levels of TIF2, TIF2.1 and TIF2.5 were routinely verified by Western blot with mouse monoclonal antibody 3Ti3C11 directed against a region of TIF2.5 (not shown).
(b-d) Full length TIF2 and the coactivator fragment TIF2.1 enhance, whereas the nuclear receptor interacting domain TJF2.5 blocks the activity of the ER, RXR and RAR LBDs. Cos-1 and HeLa cells were cotransfected with 1 μg of the (17m)5-TATA-CAT reporter and 0.2 μg of the expression vector encoding the respective GAL DBD-fusion of hERα(EF), mRXRα(DE) or mRARα(DEF).
Assuming that TIF2 or coactivators recognizing the TIF2 interacting surface on NR LBDs, generally mediate the AF-2 function of NRs, the NID containing TIF2.5 should exert its dominant negative activity not only on ER, but also on other NRs, independently of the cellular context. We therefore analyzed the effect of TIF2.5 on the AF-2 activity of ER, RXRα and RARα in HeLa and in Cos-1 cells (FIGS. 12b-d).

B1: TIF2.1: cytoplasmic TIF2 coactivator fragment, amino acids 624 to 1287 of SEQ ID NO:2 (protein)
chain: ERADGQSRLHDSKGQTKLLQLLTTKSDQMEPSPLASSLSDTNKDSTGSLPGSGSTHGTSLKEKHKILHRLLQDSSSPVDLAKLTAEATGKDLSQESSSTAPGSEVTIKQEPVSPKKKENALLRYLLDKDDTKDIGLPEITPKLERLDSKTDPASNTKLIAMKTEKEEMSFEPGDQPGSELDNLEEILDDLQNSQLPQLFPDTRPGAPAGSVDKQAIINDLMQLTAENSPVTPVGAQKTALRISQSTFNNPRPGQLGRLLPNQNLPLDITLQSPTGAGPFPPIRNSSPYSVIPQPGMMGNQGMIGNQGNLGNSSTGMIGNSASRPTMPSGEWAPQSSAVRVTCAATTSAMNRPVQGGMIRNPAASIPMRPSSQPGQRQTLQSQVMNIGPSELEMNMGGPQYSQQQAPPNQTAPWPESILPIDQASFASQNRQPFGSSPDDLLCPHPAAESPSDEGALLDQLYLALRNFDGLEEIDRALGIPELVSQSQAVDPEQFSSQDSNIMLEQKAPVFPQQYASQAQMAQGSYSPMQDPNFHTMGQRPSYATLRMQPRPGLRPTGLVQNQPNQLRLQLQHRLQAQQNRQPLMNQISNVSNVNLTLRPGVPTQAPINAQMLAQRQREILNQHLRQRQMHQQQQVQQRTLMMRGQGLNMTPSMVAPSGMPATMS
transcriptional activation of GAL4 reporter by GAL4 DBD fusion (GAL4 reporter): strongly transactivated
binding to GST-CBP in vitro [1]: also interacted with GST-CBP
interaction with GAL-CBP, two hybrid (GAL-CBP): scored positive
histone acetylase activity (histone): none
effect on transcriptional activity of ER (ER (HEGO)): further enhanced
effect on AF-2 activity of liganded RXRα (RXRα AF-2): stimulated
effect on transactivation by RARα LBD (RARα LBD): very efficiently enhanced

B2: TIF2.5: TIF2 fragment amino acids 624-869, isolated NID (protein)
chain: ERADGQSRLHDSKGQTKLLQLLTTKSDQMEPSPLASSLSDTNKDSTGSLPGSGSTHGTSLKEKHKILHRLLQDSSSPVDLAKLTAEATGKDLSQESSSTAPGSEVTIKQEPVSPKKKENALLRYLLDKDDTKDIGLPEITPKLERLDSKTDPASNTKLIAMKTEKEEMSFEPGDQPGSELDNLEEILDDLQNSQLPQLFPDTRPGAPAGSVDKQAIINDLMQLTAENSPVTPVGAQKTALRISQST
transcriptional activation of GAL4 reporter by GAL4 DBD fusion (GAL4 reporter): cannot activate transcription
binding to NRs (ER, RARα LBDs) (ER, RARα and RXRα LBDs): can bind to NRs
effect on NR AF-2 activity [2]: dose-dependent inhibition of the NR AF-2 activity

Reference: patent publication US6861508B2, “Transcriptional intermediary factor-2” (Institut National de la Sante et de la Recherche Medicale, priority 1996, dated 2005)
